From PMC7544229, “Periphilin self-association underpins epigenetic silencing by the HUSH complex” (Nucleic Acids Research, 2020)

T1: TASOR fragment (residues 1014–1095) (human, UniProt Q9UK61-1 1014-1095)
T1 construct: codon-optimized synthetic gene; untagged; Residues 1055–1071 are disordered in the crystal structure; also called untagged TASOR fragment; minimal core TASOR; source: E. coli BL21 (DE3), co-expressed with His6-Periphilin fragments from pRSF-Duet, co-purified with Periphilin
T1 sequence (looked up): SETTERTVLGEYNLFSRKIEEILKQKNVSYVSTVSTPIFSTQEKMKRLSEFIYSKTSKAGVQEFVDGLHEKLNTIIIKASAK


Columns and labels:
[1] = molecular target: T1, TASOR fragment (residues 1014–1095); assay: native MS; non-denaturing mass spectrometry of the His6-Periphilin 285–374 / TASOR 1014–1095 complex; conditions not shown; conditions: both partners purified
[2] = molecular target: the molecule itself; assay: crystal structure; Periphilin 292–367 with TASOR 1014–1095; sitting drop, 18°C, 0.1 M citrate pH 4.5, 1 M ammonium sulfate; SAD phasing with Br; refined at 2.5 Å
[3] = molecular target: T1, TASOR fragment (residues 1014–1095); assay: SEC-MALS; minimal Periphilin-TASOR core complex; Superdex 200 10/300 in PBS, 293 K, 0.5 ml/min; conditions: both partners purified

Row | Binder | stoichiometry N [1] [Periphilin per TASOR] | binding result [2] | stoichiometry N [3] [Periphilin per TASOR]
1 | His6-tagged Periphilin residues 285–374 (domain or fragment, human, UniProt Q8NEY8-2 285-374, looked up, codon-optimized synthetic gene; Construct used for NMR and native mass spectrometry of the Periphilin-TASOR complex; not shown: His6, N-terminal, kept) GIELFEDSQLTTRSKAIASKTKEIEQVYRQDCETFGMVVKMLIEKDPSLEKSIQFALRQNLHEIGERCVEELKHFIAEYDTSTQDFGEPF | 2 |  | 
2 | Periphilin fragment (residues 292–367) (domain or fragment, human, UniProt Q8NEY8-2 292-367, looked up, codon-optimized synthetic gene; preceded by a His6 tag and a TEV site (ENLYFQG), digested with TEV protease; Two copies of this chain form a homodimer in the 2:1 complex with TASOR; A residue of the TEV site (G) may remain at the N-terminus after cleavage; not shown: His6, N-terminal, cleaved) SQLTTRSKAIASKTKEIEQVYRQDCETFGMVVKMLIEKDPSLEKSIQFALRQNLHEIGERCVEELKHFIAEYDTST |  | binds | 2
